Measurements reported in patent US20240383984A1 (Genentech, published 2024).
Positions count from the first letter of the chain named. In names and notes the source's numbering stands.

T1: human FcRH5 protein fragment (soluble) (human, UniProt Q96RD9 16-851)
T1 construct: whole entry named; also called soluble human FcRH5; Human FcRH5 (BIACORE analyte)
T1 sequence: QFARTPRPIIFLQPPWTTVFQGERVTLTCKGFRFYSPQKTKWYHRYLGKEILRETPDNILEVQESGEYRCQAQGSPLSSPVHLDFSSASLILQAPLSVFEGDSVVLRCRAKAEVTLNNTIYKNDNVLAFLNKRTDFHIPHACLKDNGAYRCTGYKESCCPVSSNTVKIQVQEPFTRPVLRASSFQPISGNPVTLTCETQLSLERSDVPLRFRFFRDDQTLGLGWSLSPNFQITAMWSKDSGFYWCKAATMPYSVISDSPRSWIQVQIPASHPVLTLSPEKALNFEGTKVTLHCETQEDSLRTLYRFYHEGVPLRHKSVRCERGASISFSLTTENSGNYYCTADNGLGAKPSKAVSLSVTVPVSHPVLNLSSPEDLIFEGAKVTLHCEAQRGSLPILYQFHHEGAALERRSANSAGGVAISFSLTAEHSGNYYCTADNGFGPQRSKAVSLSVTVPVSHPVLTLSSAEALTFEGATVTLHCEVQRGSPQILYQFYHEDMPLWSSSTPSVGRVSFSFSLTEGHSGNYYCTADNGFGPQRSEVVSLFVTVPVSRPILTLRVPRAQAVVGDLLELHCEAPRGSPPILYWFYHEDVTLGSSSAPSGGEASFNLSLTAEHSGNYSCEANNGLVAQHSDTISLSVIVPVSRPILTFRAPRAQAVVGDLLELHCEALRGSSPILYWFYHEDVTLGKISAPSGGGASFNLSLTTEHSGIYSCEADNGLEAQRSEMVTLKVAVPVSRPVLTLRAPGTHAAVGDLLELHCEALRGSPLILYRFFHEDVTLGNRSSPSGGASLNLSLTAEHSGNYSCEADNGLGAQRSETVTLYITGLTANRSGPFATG

B1: hu1G7.v1 heavy chain M64F with light chain of hu1G7.v1 (antibody, V domains shown)
VH: EVQLVESGPGLVKPSETLSLTCTVSGFSLTRFGVHWVRQPPGKGLEWLGVIWRGGSTDYNAAFFSRLTISKDNSKNQVSLKLSSVTAADTAVYYCSNHYYGSSDYALDNWGQGTLVTVSS
VL: DIQMTQSPSSLSASVGDRVTITCKASQDVSNIVVWFQQKPGKSPKLLIYSASYRYTGVPSRFSGSGSGTDFTLTISSLQPEDFATYYCQQHYSSPYTFGQGTKVEIK
notes: human IgG
B2: hu1G7.v1 heavy chain M64L with light chain of hu1G7.v1.4 (antibody, V domains shown)
VH: B1 VH with F64L
VL: B1 VL with S30R, I32L, S43A, A51G, T56S, S94P
notes: human IgG
B3: hu1G7.v1 heavy chain W52F with light chain of hu1G7.v1.4 (antibody, V domains shown)
VH: B1 VH with W52F, F64M
VL: B1 VL with S30R, I32L, S43A, A51G, T56S, S94P
notes: human IgG
B4: hu1G7.v1 heavy chain W52F with light chain of hu1G7.v1.6 (antibody, V domains shown)
VH: B1 VH with W52F, F64M
VL: B1 VL with S43A, A51G, S52Y, T56S, H91Q, S93Q, S94P
notes: human IgG
B5: hu1G7.v1 heavy chain M64F with light chain of hu1G7.v1.5 (antibody, V domains shown)
VH: B1 VH
VL: B1 VL with A51G, S52Y, H91Q, Y92F, S93Q, S94P
notes: human IgG
B6: hu1G7.v1 heavy chain M64L with light chain of hu1G7.v1 (antibody, V domains shown)
VH: B1 VH with F64L
VL: B1 VL
notes: human IgG
B7: hu1G7.v1 heavy chain M64V with light chain of hu1G7.v1.6 (antibody, V domains shown)
VH: B1 VH with F64V
VL: B1 VL with S43A, A51G, S52Y, T56S, H91Q, S93Q, S94P
notes: human IgG
B8: hu1G7.v1 heavy chain M64L with light chain of hu1G7.v1.5 (antibody, V domains shown)
VH: B1 VH with F64L
VL: B1 VL with A51G, S52Y, H91Q, Y92F, S93Q, S94P
notes: human IgG
B9: hu1G7.v1 heavy chain W52F with light chain of hu1G7.v1.5 (antibody, V domains shown)
VH: B1 VH with W52F, F64M
VL: B1 VL with A51G, S52Y, H91Q, Y92F, S93Q, S94P
notes: human IgG
B10: hu1G7.v1 heavy chain M64I with light chain of hu1G7.v1 (antibody, V domains shown)
VH: B1 VH with F64I
VL: B1 VL
notes: human IgG
B11: hu1G7.v1 heavy chain M64V with light chain of hu1G7.v1.3 (antibody, V domains shown)
VH: B1 VH with F64V
VL: B1 VL with S30R, S43A, A51G, T56S, H91Q, S94P
notes: human IgG
B12: hu1G7.v1 heavy chain W52F with light chain of hu1G7.v1 (antibody, V domains shown)
VH: B1 VH with W52F, F64M
VL: B1 VL
notes: human IgG
B13: hu1G7.v1 heavy chain W52H with light chain of hu1G7.v1.3 (antibody, V domains shown)
VH: B1 VH with W52H, F64M
VL: B1 VL with S30R, S43A, A51G, T56S, H91Q, S94P
notes: human IgG
B14: hu1G7.v1 heavy chain M64V with light chain of hu1G7.v1.7 (antibody, V domains shown)
VH: B1 VH with F64V
VL: B1 VL with S30R, I32L, S43A, A51G, S52Y, S93Q, S94P
notes: human IgG
B15: hu1G7.v1 heavy chain M64F with light chain of hu1G7.v1.3 (antibody, V domains shown)
VH: B1 VH
VL: B1 VL with S30R, S43A, A51G, T56S, H91Q, S94P
notes: human IgG
B16: hu1G7.v1 heavy chain M64L with light chain of hu1G7.v1.3 (antibody, V domains shown)
VH: B1 VH with F64L
VL: B1 VL with S30R, S43A, A51G, T56S, H91Q, S94P
notes: human IgG
B17: hu1G7.v1 heavy chain W52F with light chain of hu1G7.v1.7 (antibody, V domains shown)
VH: B1 VH with W52F, F64M
VL: B1 VL with S30R, I32L, S43A, A51G, S52Y, S93Q, S94P
notes: human IgG
B18: hu1G7.v1 heavy chain W52H with light chain of hu1G7.v1.5 (antibody, V domains shown)
VH: B1 VH with W52H, F64M
VL: B1 VL with A51G, S52Y, H91Q, Y92F, S93Q, S94P
notes: human IgG
B19: hu1G7.v1 heavy chain M64I with light chain of hu1G7.v1.3 (antibody, V domains shown)
VH: B1 VH with F64I
VL: B1 VL with S30R, S43A, A51G, T56S, H91Q, S94P
notes: human IgG
B20: hu1G7.v1 heavy chain W52H with light chain of hu1G7.v1.4 (antibody, V domains shown)
VH: B1 VH with W52H, F64M
VL: B1 VL with S30R, I32L, S43A, A51G, T56S, S94P
notes: human IgG
B21: hu1G7.v1 heavy chain M64I with light chain of hu1G7.v1.7 (antibody, V domains shown)
VH: B1 VH with F64I
VL: B1 VL with S30R, I32L, S43A, A51G, S52Y, S93Q, S94P
notes: human IgG
B22: hu1G7.v1 heavy chain M64F with light chain of hu1G7.v1.4 (antibody, V domains shown)
VH: B1 VH
VL: B1 VL with S30R, I32L, S43A, A51G, T56S, S94P
notes: human IgG
B23: hu1G7.v1 heavy chain M64V with light chain of hu1G7.v1.5 (antibody, V domains shown)
VH: B1 VH with F64V
VL: B1 VL with A51G, S52Y, H91Q, Y92F, S93Q, S94P
notes: human IgG
B24: hu1G7.v1 heavy chain M64F with light chain of hu1G7.v1.6 (antibody, V domains shown)
VH: B1 VH
VL: B1 VL with S43A, A51G, S52Y, T56S, H91Q, S93Q, S94P
notes: human IgG
B25: hu1G7.v1 heavy chain W52F with light chain of hu1G7.v1.3 (antibody, V domains shown)
VH: B1 VH with W52F, F64M
VL: B1 VL with S30R, S43A, A51G, T56S, H91Q, S94P
notes: human IgG
B26: hu1G7.v1 heavy chain M64L with light chain of hu1G7.v1.6 (antibody, V domains shown)
VH: B1 VH with F64L
VL: B1 VL with S43A, A51G, S52Y, T56S, H91Q, S93Q, S94P
notes: human IgG
B27: hu1G7.v1 heavy chain M64I with light chain of hu1G7.v1.4 (antibody, V domains shown)
VH: B1 VH with F64I
VL: B1 VL with S30R, I32L, S43A, A51G, T56S, S94P
notes: human IgG
B28: hu1G7.v1 heavy chain M64F with light chain of hu1G7.v1.7 (antibody, V domains shown)
VH: B1 VH
VL: B1 VL with S30R, I32L, S43A, A51G, S52Y, S93Q, S94P
notes: human IgG
B29: hu1G7.v1 heavy chain W52H with light chain of hu1G7.v1 (antibody, V domains shown)
VH: B1 VH with W52H, F64M
VL: B1 VL
notes: human IgG
B30: hu1G7.v1 heavy chain M64I with light chain of hu1G7.v1.6 (antibody, V domains shown)
VH: B1 VH with F64I
VL: B1 VL with S43A, A51G, S52Y, T56S, H91Q, S93Q, S94P
notes: human IgG
B31: hu1G7.v1 heavy chain M64I with light chain of hu1G7.v1.5 (antibody, V domains shown)
VH: B1 VH with F64I
VL: B1 VL with A51G, S52Y, H91Q, Y92F, S93Q, S94P
notes: human IgG

Biological target: T1, human FcRH5 protein fragment (soluble)
Experiment: SPR, hIgG capture, screening
Experimental: (§1) Briefly, a human IgG capture surface was generated on a Series S CM5 chip using amine coupling and the human IgG capture kit (GE Life Sciences, Piscataway, NJ). Test antibodies were then captured on flow cells 2, 3, or 4, with flow cell 1 used as a reference. An FcRH5 protein fragment was used as the analyte, with a flow rate of […]. Between injections the capture surface was regenerated by a 30-second injection of 3M magnesium chloride or 10 mM glycine, pH 1.5. Interactions were assessed at 25° C. in 10 mM HEPES pH7.4, 150 mM NaCl, and 0.05% Tween 20 (HBSP). Reference data from the reference flow cell and from injection of buffer alone were subtracted prior to kinetic analysis. Kinetic information was calculated by fitting data to a 1:1 binding model. Reference subtraction and data fitting were performed using BIAevaluation software (GE Life Sciences, Piscataway, NJ).
(§2) For affinity screening of HVR-H2 Trp52 and Met64 variants (Table 7), antibodies were expressed by transient transfection of Expi293 cells and purified using tip columns that were custom packed with affinity resin MabSelect SuRe (Glygen Corp., Columbia, MD & GE Life Sciences, Piscataway, NJ). […] Binding of FcRH5 protein fragment to captured antibodies was monitored at 100 nM and 500 nM. Association and dissociation were monitored at a flow rate of 40 μl/min, for 180 s and 300 s, respectively.

Kd [nM] | Binder
26 | B1
2.5 | B2
120 | B3
81 | B4
1.4 | B5
27 | B6
2.7 | B7
2.3 | B8
48 | B9
30 | B10
2.5 | B11
250 | B12
66 | B13
2.5 | B14
2.2 | B15
2.4 | B16

Kd [nM] | Binder
77 | B17
67 | B18
2.1 | B19
60 | B20
2.6 | B21
2.5 | B22
2.5 | B23
2.6 | B24
180 | B25
2.6 | B26
2.5 | B27
2.4 | B28
120 | B29
2.7 | B30
2.7 | B31

Biological target: T1, human FcRH5 protein fragment (soluble)
Experiment: SPR (BIACORE), IgG captured via anti-human IgG, FcRH5 protein fragment as analyte (100 and 500 nM)
Experimental: as §1, §2

Kd [nM] | Binder
25.9 | B1
2.5 | B2
119 | B3
81.4 | B4
1.4 | B5
26.5 | B6
2.7 | B7
2.3 | B8
47.5 | B9
29.8 | B10
2.5 | B11
254 | B12
65.5 | B13
2.5 | B14
2.2 | B15
2.4 | B16

Kd [nM] | Binder
76.6 | B17
67.3 | B18
2.1 | B19
60.4 | B20
2.6 | B21
2.5 | B22
2.5 | B23
2.6 | B24
177 | B25
2.6 | B26
2.5 | B27
2.4 | B28
120 | B29
2.7 | B30
2.7 | B31
